T1: human NMI (N-myc Interacting protein), recombinant protein (human, UniProt Q13287 1-307, limits assumed)
T1 construct: Gene ID: 9111; also called hNMI; antigen
T1 sequence (looked up): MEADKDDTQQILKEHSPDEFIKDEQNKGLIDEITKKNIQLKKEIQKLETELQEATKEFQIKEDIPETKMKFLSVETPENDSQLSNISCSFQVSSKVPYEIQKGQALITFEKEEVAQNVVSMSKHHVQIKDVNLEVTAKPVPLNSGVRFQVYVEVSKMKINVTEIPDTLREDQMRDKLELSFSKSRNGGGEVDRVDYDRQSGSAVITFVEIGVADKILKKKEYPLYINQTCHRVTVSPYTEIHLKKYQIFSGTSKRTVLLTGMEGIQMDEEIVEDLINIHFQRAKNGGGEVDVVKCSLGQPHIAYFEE

B1: monoclonal antibody 240B10-1 (antibody, V domains shown)
VH: QSLEESGGRLVTPGGSLTLTCTVSGIDLSSYTMGWVRQAPGKGLEYIGIISGGGRTYYASWAKGRFTISKTSSTTVDLKVTSLTTEDTATYFCARIYTLWGQGTLVTVSS
VL: QVLTQTLASVSAAVGGTVTINCQSSQSVYNNDYLAWFQQKSGQPPKQLIHSASKLASGVPSRFKGSGSGTQFTLTINDVQCDDAATYYCLGGYDCYSADCNVFGGGTEVVVK
notes: Rabbit monoclonal antibody
B2: monoclonal antibody B-8 (antibody, V domains shown)
VH: QSLEESGGDLVKPGASLTLTCTASGFSFSSSYYMCWVRQAPGKGLEWIACIYAGSSGSTYYASWAKGRFTISKTSSTTVTLQMTSLTAADTATYFCAREYSYDDYGDFWGFNLWGPGTLVTVSS
VL: ALVMTQTPSSVSAAVGGTVTINCQASQNIYTNLAWYQQKPGQPPKLLIYGASNLESGVPSRFKGSGSGTEYTLTISDLECDDAATYYCQSSLYSRIADRANAFGGGTEVVVK
notes: Rabbit monoclonal antibody; also called B8-1

Assays:
[1] = biological target: T1, human NMI (N-myc Interacting protein), …; test: sandwich ELISA; detection 39B4-1-biotin; hNMI 100.000 ng/mL
[2] = biological target: T1, human NMI (N-myc Interacting protein), …; test: sandwich ELISA; detection 98G10-1-biotin; hNMI 3.704 ng/mL
[3] = biological target: T1, human NMI (N-myc Interacting protein), …; test: sandwich ELISA; detection 94C4-1-biotin 1µg/mL; hNMI 50,000.000 pg/mL
[4] = biological target: T1, human NMI (N-myc Interacting protein), …; test: sandwich ELISA; detection 94C4-1-biotin 1µg/mL; hNMI 1,562.500 pg/mL
[5] = biological target: T1, human NMI (N-myc Interacting protein), …; test: sandwich ELISA; detection 94C4-1-biotin 0.5µg/mL; hNMI 6,250.000 pg/mL
[6] = biological target: T1, human NMI (N-myc Interacting protein), …; test: sandwich ELISA; detection 39B4-1-biotin; hNMI 11.111 ng/mL
[7] = biological target: T1, human NMI (N-myc Interacting protein), …; test: sandwich ELISA; detection 39B4-1-biotin; hNMI 1.235 ng/mL
[8] = biological target: T1, human NMI (N-myc Interacting protein), …; test: sandwich ELISA; detection 94C4-1-biotin 1µg/mL; hNMI 48.828 pg/mL
[9] = biological target: T1, human NMI (N-myc Interacting protein), …; test: sandwich ELISA; detection 98G10-1-biotin; hNMI 1.235 ng/mL
[10] = biological target: T1, human NMI (N-myc Interacting protein), …; test: sandwich ELISA; detection 94C4-1-biotin 1µg/mL; hNMI 25,000.000 pg/mL
[11] = biological target: T1, human NMI (N-myc Interacting protein), …; test: sandwich ELISA; detection 94C4-1-biotin 1µg/mL; hNMI 12,500.000 pg/mL
[12] = biological target: T1, human NMI (N-myc Interacting protein), …; test: sandwich ELISA; detection 98G10-1-biotin; hNMI 33.333 ng/mL
[13] = biological target: T1, human NMI (N-myc Interacting protein), …; test: sandwich ELISA; detection 94C4-1-biotin 1µg/mL; hNMI 195.313 pg/mL
[14] = biological target: T1, human NMI (N-myc Interacting protein), …; test: sandwich ELISA; detection 94C4-1-biotin 0.5µg/mL; hNMI 390.625 pg/mL
[15] = biological target: T1, human NMI (N-myc Interacting protein), …; test: sandwich ELISA; detection 98G10-1-biotin; hNMI 100.000 ng/mL
[16] = biological target: T1, human NMI (N-myc Interacting protein), …; test: sandwich ELISA; detection 94C4-1-biotin 0.5µg/mL; hNMI 1,562.500 pg/mL
[17] = biological target: T1, human NMI (N-myc Interacting protein), …; test: sandwich ELISA; detection 39B4-1-biotin; hNMI 3.704 ng/mL
[18] = biological target: T1, human NMI (N-myc Interacting protein), …; test: sandwich ELISA; detection 98G10-1-biotin; hNMI 11.111 ng/mL
[19] = biological target: T1, human NMI (N-myc Interacting protein), …; test: sandwich ELISA; detection 94C4-1-biotin 0.5µg/mL; hNMI 3,125.000 pg/mL
[20] = biological target: T1, human NMI (N-myc Interacting protein), …; test: sandwich ELISA; detection 94C4-1-biotin 0.5µg/mL; hNMI 97.656 pg/mL
[21] = biological target: T1, human NMI (N-myc Interacting protein), …; test: sandwich ELISA; detection 94C4-1-biotin 0.5µg/mL; hNMI 50,000.000 pg/mL
[22] = biological target: T1, human NMI (N-myc Interacting protein), …; test: sandwich ELISA; detection 94C4-1-biotin 1µg/mL; hNMI 3,125.000 pg/mL
[23] = biological target: T1, human NMI (N-myc Interacting protein), …; test: sandwich ELISA; detection 94C4-1-biotin 1µg/mL; hNMI 390.625 pg/mL

| Binder | OD450 [1] [OD450] | OD450 [2] [OD450] | OD450 [3] [OD450] | OD450 [4] [OD450] | OD450 [5] [OD450] | OD450 [6] [OD450] | OD450 [7] [OD450] | OD450 [8] [OD450] | OD450 [9] [OD450] | OD450 [10] [OD450] | OD450 [11] [OD450] | OD450 [12] [OD450] | OD450 [13] [OD450] | OD450 [14] [OD450] | OD450 [15] [OD450] | OD450 [16] [OD450] | OD450 [17] [OD450] | OD450 [18] [OD450] | OD450 [19] [OD450] | OD450 [20] [OD450] | further results |
| --- | --- | --- | --- | --- | --- | --- | --- | --- | --- | --- | --- | --- | --- | --- | --- | --- | --- | --- | --- | --- | --- |
| B1 | 3.12 | 0.777 | 3.1 | 0.568 | 1.58 | 1.71 | 0.35 | 0.167 | 0.362 | 2.75 | 2.17 | 2.56 | 0.212 | 0.268 | 3.14 | 0.907 | 0.785 | 1.7 | 1.29 | 0.146 | OD450 [21]: 3.33 OD450; OD450 [22]: 0.958 OD450; OD450 [23]: 0.255 OD450 |
| B2 | 3.07 | 0.607 | 3.11 | 0.446 | 1.29 | 1.25 | 0.291 | 0.139 | 0.307 | 2.79 | 2.03 | 2.48 | 0.173 | 0.178 | 3.02 | 0.42 | 0.563 | 1.38 | 0.712 | 0.113 | OD450 [21]: 3.17 OD450; OD450 [22]: 0.75 OD450; OD450 [23]: 0.206 OD450 |
